Test results: patent US20210107983A1 (Boehringer Ingelheim, published 2021)

T1: human B7H6 on HCT-15 cells (human, UniProt Q68D85 25-454)
T1 construct: whole, on cells; also called B7H6-positive HCT-15 cells
T1 sequence (looked up): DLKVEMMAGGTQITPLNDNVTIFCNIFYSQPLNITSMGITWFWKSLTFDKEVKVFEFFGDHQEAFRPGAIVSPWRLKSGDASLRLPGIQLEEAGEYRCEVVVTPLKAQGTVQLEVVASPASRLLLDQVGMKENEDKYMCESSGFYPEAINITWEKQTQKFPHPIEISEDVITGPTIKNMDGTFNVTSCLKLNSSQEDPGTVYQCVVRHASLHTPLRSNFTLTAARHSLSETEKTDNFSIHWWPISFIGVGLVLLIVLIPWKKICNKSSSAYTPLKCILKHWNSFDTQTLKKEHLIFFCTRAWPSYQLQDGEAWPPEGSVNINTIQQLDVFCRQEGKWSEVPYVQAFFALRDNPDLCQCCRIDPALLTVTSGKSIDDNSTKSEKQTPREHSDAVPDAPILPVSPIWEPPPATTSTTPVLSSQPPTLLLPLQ

T2: Cyno B7H6-His (cynomolgus monkey)
T2 construct: also called CyB7H6; cyB7-H6
T2 chain: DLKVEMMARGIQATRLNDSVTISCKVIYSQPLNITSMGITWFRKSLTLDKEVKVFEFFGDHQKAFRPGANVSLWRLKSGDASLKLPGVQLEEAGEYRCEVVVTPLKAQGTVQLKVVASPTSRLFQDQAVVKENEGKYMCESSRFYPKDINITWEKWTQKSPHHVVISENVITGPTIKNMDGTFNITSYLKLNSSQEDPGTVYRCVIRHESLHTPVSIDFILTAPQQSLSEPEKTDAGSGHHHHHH

B1: B7H6#10/CD3#1 (bispecific antibody, human IgG1, kappa, lambda, L234A L235A)
chain 1: DIQMTQSPSSVSASVGDRVTITCRASQGISSWLAWYQQKPGKAPKLLIYVASSLQRGVPSRFSGSGSGTDFTLTISNLQPEDFATYYCQQANSFPRTFGQGTKVEIKRTVAAPSVFIFPPSDEQLKSGTASVVCLLNNFYPREAKVQWKVDNALQSGNSQESVTEQDSKDSTYSLSSTLTLSKADYEKHKVYACEVTHQGLSSPVTKSFNRGECGGGGSEGKSSGSGSESKSTEGKSSGSGSESKSTGGGGSQVHLQESGPGLVKPSETLSLTCTVSGDSISSYYWSWIRQPAGKGLEWIGHIYTSEKNNYNPSLKSRVIMSVDTSKNQFSLNLSSVTAADTAVYYCARVGNWGSHDAWGQGTLVTVSSASTKGPSVFPLAPSSKSTSGGTAALGCLVKDYFPEPVTVSWNSGALTSGVHTFPAVLQSSGLYSLSSVVTVPSSSLGTQTYICNVNHKPSNTKVDKRVEPKSCDKTHTCPPCPAPEAAGGPSVFLFPPKPKDTLMISRTPEVTCVVVDVSHEDPEVKFNWYVDGVEVHNAKTKPREEQYNSTYRVVSVLTVLHQDWLNGKEYKCKVSNKALPAPIEKTISKAKGQPREPQVYTLPPSREEMTKNQVSLWCLVKGFYPSDIAVEWESNGQPENNYKTTPPVLDSDGSFFLYSKLTVDKSRWQQGNVFSCSVMHEALHNHYTQKSLSLSPG
chain 2: EAVVTQEPSLTVSPGGTVTLTCRSSTGAVTTSNYANWVQEKPGQLPRGLIGGTNKRAPWVPARFSGSLLGGKAALTLSGAQPEDEAEYFCALWYSNLWVFGGGTKLTVLGQPKAAPSVTLFPPSSEELQANKATLVCLISDFYPGAVKVAWKADGSPVNTGVETTTPSKQSNNKYAASSYLSLTPEQWKSHRSYSCQVTHEGSTVEKTVAPAECSGGGGSEGKSSGSGSESKSTEGKSSGSGSESKSTGGGGSEVQLVESGGGLVQPGGSLKLSCAASGFTFNTYAMNWVRQAPGKGLEWVARIRSKYNNYATYYADSVKDRFTISRDDSKNTAYLQMNNLKTEDTAVYYCVRHGNFGNSYVSWFAYWGQGTLVTVSAASTKGPSVFPLAPSSKSTSGGTAALGCLVKDYFPEPVTVSWNSGALTSGVHTFPAVLQSSGLYSLSSVVTVPSSSLGTQTYICNVNHKPSNTKVDKRVEPKSCDKTHTCPPCPAPEAAGGPSVFLFPPKPKDTLMISRTPEVTCVVVDVSHEDPEVKFNWYVDGVEVHNAKTKPREEQYNSTYRVVSVLTVLHQDWLNGKEYKCKVSNKALPAPIEKTISKAKGQPREPQVYTLPPSREEMTKNQVSLSCAVKGFYPSDIAVEWESNGQPENNYKTTPPVLDSDGSFFLVSKLTVDKSRWQQGNVFSCSVMHEALHNRFTQKSLSLSPG
notes: scFab-Fc heterodimer, one B7H6 chain and one CD3 chain
B2: B7H6#23/CD3#6 (bispecific antibody, human IgG1, kappa, L234A L235A)
chain 1: DIQMTQSPSSLSASVGDRVTITCKASQNVGKYVAWYQQKPGKAPKSLIYSASNRYDAVPSRFSGSGSGTDFTLTISSLQPEDFATYFCQQYISYPLTFGAGTKLEIKRTVAAPSVFIFPPSDEQLKSGTASVVCLLNNFYPREAKVQWKVDNALQSGNSQESVTEQDSKDSTYSLSSTLTLSKADYEKHKVYACEVTHQGLSSPVTKSFNRGECGGGGSEGKSSGSGSESKSTEGKSSGSGSESKSTGGGGSQVQLVQSGAEVKKPGASVKVSCKASGYTFTSYWMNWMKQAPGQGLEWIGGIYLSGESTDYNEKFKGKVTMTVDTSTSTVYMELSSLRSEDTAVYYCTRRGDYFGDFWGQGTLVTVSSASTKGPSVFPLAPSSKSTSGGTAALGCLVKDYFPEPVTVSWNSGALTSGVHTFPAVLQSSGLYSLSSVVTVPSSSLGTQTYICNVNHKPSNTKVDKRVEPKSCDKTHTCPPCPAPEAAGGPSVFLFPPKPKDTLMISRTPEVTCVVVDVSHEDPEVKFNWYVDGVEVHNAKTKPREEQYNSTYRVVSVLTVLHQDWLNGKEYKCKVSNKALPAPIEKTISKAKGQPREPQVYTLPPSREEMTKNQVSLWCLVKGFYPSDIAVEWESNGQPENNYKTTPPVLDSDGSFFLYSKLTVDKSRWQQGNVFSCSVMHEALHNHYTQKSLSLSPG
chain 2: not shown
notes: scFab-Fc heterodimer

Legend:
[1] = molecular target: T3, Fc-His-tagged human B7H6 ECD (human); test: ELISA, plate coated with Fc-His-tagged human B7H6 ECD, anti-human IgG F(ab')2-peroxidase, TMB
T3 construct: also called huB7H6-ECD-Fc-His; recombinant human B7H6 ECD
Procedure: To assess binding of B7H6/CD3 binding proteins to recombinant human Fc-His-tagged B7H6 ECD and human Fc-His-tagged Ala-mutated B7H6 extracellular proteins as described in Example 3, MediSorp™ plates (Nunc, 467320) were coated with […] recombinant proteins overnight at 4° C. The next day, plates were blocked with 0.5% bovine serum albumin (BSA) in phosphate buffered saline (PBS) for 1 hour at room temperature (RT). Subsequently plates were washed with […] containing 0.05% TWEEN®20 viscous liquid and B7H6/CD3 binding proteins were incubated at concentrations ranging from 0.00001 to 10 μg/ml. After an additional washing step, bound B7H6/CD3 binding proteins were detected by a peroxidase conjugated goat anti-human IgG F(ab′)₂-specific secondary antibody (Jackson Immunoresearch) and visualized by TMB substrate solution (Bender Med Systems).

[2] = molecular target: T1, human B7H6 on HCT-15 cells; test: flow cytometry on HCT-15 cells, PE anti-human secondary antibody
Procedure: Binding of B7H6/CD3 binding proteins to HCT-15, a human (colo-rectal cancer) CRC cell line was tested by flow cytometry. In a previous experiment, it has been confirmed that HCT-15 cells expresses B7-H6 on the RNA levels as well as the protein level with approximately 8,000 B7-H6 receptors on the cell surface (data not shown). B7H6/CD3 binding proteins were produced, as described in Example 2. HCT-15 cells were stained with increasing concentrations of two-step purified B7H6/CD3 binding proteins in FACS buffer (PBS/0.5% BSA/0.05% sodium azide). Bound molecules were detected with PE-conjugated anti-human secondary antibody (Sigma-Aldrich, #P8047).

[3] = molecular target: T1, human B7H6 on HCT-15 cells; test: cell-based or functional assay
[4] = molecular target: T4, trypsin inhibitor from Glycine max soybean (Glycine max (soybean)); test: SPR, 1 µM binder over immobilized trypsin inhibitor
T4 construct: unrelated negatively charged protein, amine-coupled to the chip
T4 sequence (P01070 25-205): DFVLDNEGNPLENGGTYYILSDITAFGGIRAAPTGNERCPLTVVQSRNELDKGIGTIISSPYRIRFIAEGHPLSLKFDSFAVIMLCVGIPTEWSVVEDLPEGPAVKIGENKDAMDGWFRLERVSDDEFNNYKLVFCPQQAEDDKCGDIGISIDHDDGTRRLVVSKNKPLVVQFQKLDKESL
How it was run: (§1)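 Non-specific binding tested with samples at 1 μM in HBS-EP at 25 °C, 5 μL/min, over lysozyme or trypsin inhibitor amine-coupled to CM5 chip (3000–5000 RU). Association 10 min, dissociation 15 min.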

Cyno B7H6-His [5] = molecular target: T2, Cyno B7H6-His; test: ratio of SPR KDs cyno/human
Cyno CD3 E+G HuFc-6xHis [6] = molecular target: T5, Cyno CD3 E+G HuFc-6xHis (cynomolgus monkey); test: ratio of SPR KDs cyno/human
T5 construct: also called CyCD3E+G-hFc; cyCD3
T5 sequence (chain, as listed by the source limits assumed): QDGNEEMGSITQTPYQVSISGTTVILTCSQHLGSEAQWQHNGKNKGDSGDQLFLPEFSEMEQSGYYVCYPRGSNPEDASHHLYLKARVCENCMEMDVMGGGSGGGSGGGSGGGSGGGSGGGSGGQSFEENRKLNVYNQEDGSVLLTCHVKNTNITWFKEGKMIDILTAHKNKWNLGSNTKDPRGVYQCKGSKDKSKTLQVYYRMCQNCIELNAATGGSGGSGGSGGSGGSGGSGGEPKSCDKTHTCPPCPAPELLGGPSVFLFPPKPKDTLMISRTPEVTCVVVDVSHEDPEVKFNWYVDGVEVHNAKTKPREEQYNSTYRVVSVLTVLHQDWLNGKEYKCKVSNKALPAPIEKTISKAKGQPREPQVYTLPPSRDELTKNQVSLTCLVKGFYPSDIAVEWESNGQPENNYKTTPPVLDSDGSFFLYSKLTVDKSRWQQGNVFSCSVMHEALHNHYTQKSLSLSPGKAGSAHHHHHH

[7] = molecular target: T6, chicken egg white lysozyme (chicken, UniProt P00698 19-147); test: SPR, 1 µM binder over immobilized lysozyme
T6 construct: unrelated positively charged protein, amine-coupled to the chip; also called Lysozyme (positive)
T6 sequence (P00698 19-147): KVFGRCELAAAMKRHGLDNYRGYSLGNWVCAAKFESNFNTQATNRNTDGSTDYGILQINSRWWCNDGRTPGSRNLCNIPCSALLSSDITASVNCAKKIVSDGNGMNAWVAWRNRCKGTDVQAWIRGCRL
How it was run: as §1

CD3 on human T-cells = molecular target: T7, CD3 on human T-cells (human, UniProt P07766;P09693); test: flow cytometry on purified human T-cells, PE anti-human secondary antibody
T7 construct: endogenous, on the surface of purified T-cells; also called human T-cells expressing CD3
T7 sequence (P07766 23-207, chain 1 of 2): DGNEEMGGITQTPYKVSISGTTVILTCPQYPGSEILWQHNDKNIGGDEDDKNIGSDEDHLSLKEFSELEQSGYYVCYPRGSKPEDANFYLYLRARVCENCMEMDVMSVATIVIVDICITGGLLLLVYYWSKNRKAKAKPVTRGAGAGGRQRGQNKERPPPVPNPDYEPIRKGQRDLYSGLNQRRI
T7 sequence (P09693 23-182, chain 2 of 2): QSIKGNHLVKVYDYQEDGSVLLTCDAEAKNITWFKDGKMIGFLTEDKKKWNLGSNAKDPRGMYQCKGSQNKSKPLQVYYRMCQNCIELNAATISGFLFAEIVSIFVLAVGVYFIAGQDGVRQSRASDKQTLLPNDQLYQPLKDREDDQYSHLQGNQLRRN
Procedure: T-cells were isolated by negative selection using the Pan T Cell Isolation Kit II (Miltenyi Biotec #130-091-156). In brief, cells were resuspended in 40 μl buffer PBS/0.5% BSA (Gibco ref #041-94553 M)/2 mM EDTA (Invitrogen ref #15575-038) per 10 Mio cells and incubated with 10 μl of Biotin-Antibody cocktail per 10 Mio cells for 5 min at 4° C. Subsequently, 30 μl buffer and 20 μl anti-biotin MACS® MicroBeds/10 million cells were added and incubated for 10 min at 4° C. Subsequently the mixture was placed in a pre-rinsed 25LS column (Miltenyi Biotec #130-042-401) in the magnetic field of suitable MACS® microbeads separator (Miltenyi Biotec). Flow-through was collected and washed in assay medium.
T-cells were stained with increasing concentrations of two-step purified B7H6/CD3 binding proteins in FACS buffer (PBS/0.5% BSA/0.05% sodium azide). Bound molecules were detected with PE-conjugated anti-human secondary antibody (Sigma-Aldrich, #P8047).

Cyno CD3 E+G HuFc-6xHis [8] = molecular target: T5, Cyno CD3 E+G HuFc-6xHis; test: SPR, CD3E+G-hFc immobilized, binder analyte
How it was run: (§2)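 On a ProteOn XPR36, human and cyno CD3E+G-hFc were amine-coupled to a GLM chip at 0.4, 0.2 and 0.1 μg/mL in 10 mM acetate pH 4.5. B7H6/CD3 binding protein (0–100 nM) flowed in HBS-EP+ at 30 μL/min, with 300 s association and 600 s dissociation. Interspot and blank responses were subtracted.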

Human CD3 E+G HuFc-6xHis = molecular target: T8, Human CD3 E+G HuFc-6xHis (human); test: SPR, CD3E+G-hFc immobilized, binder analyte
T8 construct: also called HuCD3E+G-hFc; huCD3
T8 sequence (chain, as listed by the source limits assumed): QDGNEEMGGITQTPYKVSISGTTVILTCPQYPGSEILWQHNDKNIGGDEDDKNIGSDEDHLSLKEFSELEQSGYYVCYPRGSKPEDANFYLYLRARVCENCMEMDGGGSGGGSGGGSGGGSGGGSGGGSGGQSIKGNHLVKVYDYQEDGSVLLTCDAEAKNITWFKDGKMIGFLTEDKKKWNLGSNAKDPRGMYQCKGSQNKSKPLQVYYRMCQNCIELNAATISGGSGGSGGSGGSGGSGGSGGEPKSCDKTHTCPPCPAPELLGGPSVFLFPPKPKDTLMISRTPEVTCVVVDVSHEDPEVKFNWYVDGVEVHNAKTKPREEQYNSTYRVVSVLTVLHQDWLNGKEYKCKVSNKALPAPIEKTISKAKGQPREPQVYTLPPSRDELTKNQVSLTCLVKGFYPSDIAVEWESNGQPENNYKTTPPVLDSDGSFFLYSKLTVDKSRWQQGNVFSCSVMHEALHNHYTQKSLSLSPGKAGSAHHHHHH
How it was run: as §2

Cyno B7H6-His [9] = molecular target: T2, Cyno B7H6-His; test: SPR, binder captured on Protein A/G, B7H6 analyte
How it was run: (§3)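 B7H6/CD3 binder captured (~700 RU) on a Protein A/G CM5 surface in HBS-EP+. Human or cyno B7H6 injected at 0–100 nM and human B7H1 at 0 nM and 1 μM, 300 s association and 1200 s dissociation. Data double-referenced against the reference flow cell and blank.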

Human B7H1 = molecular target: T9, Human B7H1 (human, UniProt Q9NZQ7 20-239); test: SPR, binder captured on Protein A/G, HuB7H1 analyte
T9 construct: also called HuB7H1; huB7-H1
T9 sequence (Q9NZQ7 other isoform, or with tags, fused parts or gaps limits assumed): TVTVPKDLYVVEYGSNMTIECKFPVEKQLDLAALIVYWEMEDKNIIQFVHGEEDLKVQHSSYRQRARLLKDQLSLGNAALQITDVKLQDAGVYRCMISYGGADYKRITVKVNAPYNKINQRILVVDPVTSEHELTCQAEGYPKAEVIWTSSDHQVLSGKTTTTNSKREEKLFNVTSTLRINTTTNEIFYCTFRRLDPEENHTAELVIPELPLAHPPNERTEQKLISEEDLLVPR
How it was run: as §3

Binder | EC50 (read off the curve) [1] | EC50 (read off the curve) [2] | EC50 [nM], 72 hour cytotoxicity assay, non-stimulated T-cells (Donor #1) as effector cells, HCT-15 cells as target cells [3] | Non-specific binding (RU) [4] | cy/hu B7-H6 (Cyno B7H6-His [5]) | cy/hu CD3 (Cyno CD3 E+G HuFc-6xHis [6]) | Non-specific binding (RU) [7] | binding result (CD3 on human T-cells) | Kd (Cyno CD3 E+G HuFc-6xHis [8]) | Kd (Human CD3 E+G HuFc-6xHis) | Kd (Cyno B7H6-His [9]) | binding result (Human B7H1)
B1 | ~0.05 µg/mL | ~0.9 nM | 0.53 nM |  |  |  |  |  |  |  |  | 
B2 |  |  |  | 96.5 RU | 1.1 | 1.2 | 57.2 RU | binds | 3.9 nM | 3.4 nM | 2 nM | no binding (tested: 1 µM)
